According to patent publication US8372580B2, “BRCA1 function-based cellular assays” (Morehouse School of Medicine, priority 2008, dated 2013):

B1: BRCA1 (aa 1-182): amino-terminal BRCA1 fragment, residues 1-182, with N-terminal FLAG sequence (protein, UniProt P38398 1-182, looked up, fragment)
chain: MDLSALRVEEVQNVINAMQKILECPICLELIKEPVSTKCDHIFCKFCMLKLLNQKKGPSQCPLCKNDITKRSLQESTRFSQLVEELLKIICAFQLDTGLEYANSYNFAKKENNSPEHLKDEVSIIQSMGYRNRAKRLLQSEPENPSLQETSLSVQLSNLGTVRTLRTKQRIQPQKTSVYIEL
modifications: N-terminal FLAG tag
B2: BRCA1 (aa 1-182) Mut#4: BRCA1 1-182 fragment point mutant 4; apparently C61G (protein, UniProt P38398 1-182, looked up, fragment C61G)
chain: MDLSALRVEEVQNVINAMQKILECPICLELIKEPVSTKCDHIFCKFCMLKLLNQKKGPSQGPLCKNDITKRSLQESTRFSQLVEELLKIICAFQLDTGLEYANSYNFAKKENNSPEHLKDEVSIIQSMGYRNRAKRLLQSEPENPSLQETSLSVQLSNLGTVRTLRTKQRIQPQKTSVYIEL
B3: BRCA1 (aa 1-182) Mutant #1: BRCA1 1-182 fragment point mutant 1; apparently K109R (protein, UniProt P38398 1-182, looked up, fragment K109R)
chain: MDLSALRVEEVQNVINAMQKILECPICLELIKEPVSTKCDHIFCKFCMLKLLNQKKGPSQCPLCKNDITKRSLQESTRFSQLVEELLKIICAFQLDTGLEYANSYNFARKENNSPEHLKDEVSIIQSMGYRNRAKRLLQSEPENPSLQETSLSVQLSNLGTVRTLRTKQRIQPQKTSVYIEL

The molecules below were run on ERα transcriptional activity in T47D breast cancer cells (assay: Cell based assay #2: ERE-luciferase reporter, E2-induced ERα activation by Ubc9 C93S). Settings: Ubc9 C93S (SUMO-independent), E2 1 μM.
Description: T47D cells (5×10^5) were plated in 6-well plates for 24 hours. The cells were washed twice in PBS followed by the addition of phenol red free DMEM containing 5% charcoal-stripped FBS for 48 hrs before transfection. The cells were transfected with 1 μg of each of the indicated plasmids (with a total of 2.5 μg DNA) using lipofectamine 2000 (Life Technology, USA). The cells were induced with 1 μM of E2 4 hours after transfections, harvested after an additional 40 hrs and assayed for luciferase activity following the manufacturer's instructions. Each set of experiments was performed in triplicate and repeated a least three times.
In the case of B1, the “inhibition of E2-mediated ERα transcription activation by Ubc9/C93S” value (“inhibition” below) is reported as “inhibit E2-mediated ERα transcription activation by Ubc9/C93S”.
With B2 the “inhibition” value was “unlike their respective Mut #1 and Mut#4, inhibit”.
B3 was tested, and the “inhibition” value was “unlike their respective Mut #1 and Mut#4, inhibit”.
